Measured values published in patent publication US6174679.

Target: T1, CIF150/hTAFII150 (Homo sapiens) (UniProt Q6P1X5)
T1 sequence: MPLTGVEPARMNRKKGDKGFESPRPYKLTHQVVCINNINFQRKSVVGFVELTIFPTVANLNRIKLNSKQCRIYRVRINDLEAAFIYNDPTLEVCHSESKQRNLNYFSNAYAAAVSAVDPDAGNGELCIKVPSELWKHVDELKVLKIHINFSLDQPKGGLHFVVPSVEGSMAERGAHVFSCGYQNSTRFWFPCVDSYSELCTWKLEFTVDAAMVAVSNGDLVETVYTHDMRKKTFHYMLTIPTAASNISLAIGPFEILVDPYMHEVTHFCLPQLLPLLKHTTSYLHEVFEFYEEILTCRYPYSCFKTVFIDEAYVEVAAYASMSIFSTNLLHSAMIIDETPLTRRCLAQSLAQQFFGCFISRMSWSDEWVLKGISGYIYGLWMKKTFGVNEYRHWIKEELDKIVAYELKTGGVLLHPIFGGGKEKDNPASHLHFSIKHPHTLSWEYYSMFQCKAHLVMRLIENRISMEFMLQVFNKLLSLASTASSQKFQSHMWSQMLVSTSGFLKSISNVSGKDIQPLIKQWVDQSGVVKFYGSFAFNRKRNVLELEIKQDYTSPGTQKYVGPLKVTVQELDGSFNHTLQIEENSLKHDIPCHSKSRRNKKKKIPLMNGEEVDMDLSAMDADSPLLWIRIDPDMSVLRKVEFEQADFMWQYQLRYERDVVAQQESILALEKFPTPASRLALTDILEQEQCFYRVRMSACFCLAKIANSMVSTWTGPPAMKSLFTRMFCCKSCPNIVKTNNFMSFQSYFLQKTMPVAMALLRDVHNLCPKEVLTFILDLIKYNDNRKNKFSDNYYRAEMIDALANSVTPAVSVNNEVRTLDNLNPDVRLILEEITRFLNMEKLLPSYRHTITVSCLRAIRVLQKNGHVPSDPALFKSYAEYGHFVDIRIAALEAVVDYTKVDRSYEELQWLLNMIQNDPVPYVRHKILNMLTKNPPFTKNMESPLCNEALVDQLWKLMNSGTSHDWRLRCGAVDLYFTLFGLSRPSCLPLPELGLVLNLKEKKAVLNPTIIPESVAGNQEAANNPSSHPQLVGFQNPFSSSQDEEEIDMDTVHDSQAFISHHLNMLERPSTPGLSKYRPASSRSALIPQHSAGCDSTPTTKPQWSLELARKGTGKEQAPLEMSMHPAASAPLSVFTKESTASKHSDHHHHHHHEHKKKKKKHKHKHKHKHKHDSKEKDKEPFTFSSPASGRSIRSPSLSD
Test: EMSA
Conditions: affinity improvement after selection (text gives both three and four rounds); dGdC competitor; supershifted by anti-CIF150 serum

Question: How did the binding signal turn out when “GAG (double strand) [selected CBE fragments with GAG core]” was run?
Answer: 5 fold
